# Reference: paper PMC2266796, “The Assembly of the Plasmodial PLP Synthase Complex Follows a Defined Course” (PLoS ONE, 2008)
# Changes are numbered by the printed parent chain. Numbers in names are those of the source.
# B1: PfPdx2HIS wild-type (Plasmodium falciparum Pdx2 with C-terminal 6x His-tag) (enzyme)
# chain: MSEITIGVLSLQGDFEPHINHFIKLQIPSLNIIQVRNVHDLGLCDGLVIPGGESTTVRRCCAYENDTLYNALVHFIHVLKKPIWGTCAGCILLSKNVENIKLYSNFGNKFSFGGLDITICRNFYGSQNDSFICSLNIISDSSAFKKDLTAACIRAPYIREILSDEVKVLATFSHESYGPNIIAAVEQNNCLGTVFHPELLPHTAFQQYFYEKVKNYKYS
# B2: PfPdx1 wild-type (Plasmodium falciparum Pdx1, Strep-tagged) (enzyme, P. falciparum, UniProt C6KT50 1-301, looked up)
# chain: MENHKDDAVLLKHGWCEMLKGGVIMDVKSVEQAKIAEEAGAIGVMVLENIPSELRNKEGVARSVDPSKVEEIKKCVSINVLAKVRIGHFVEAQILEELKIDMIDESEVLTIADEMHHIDKHKFKTPFVCGCTNLGEALRRISEGASMIRTKGEAGTGNIIEAIKHIRTVNNEIKYLCSLSDSEVYHFAKKINAPIDLVLLTKKLKRLPVVNFAAGGVATPADAAMCMQLGMDGVFVGSGIFESENPRKMAASIVSAVSNFNNPKILLDVSMNLGKAMCGSTRVSDKWKNKNEEHTKFLTPQ
# notes: molecular mass used for light scattering 34.2 kDa; also called PfPdx1 WT; plasmodial Pdx1; source: E. coli BLR (DE3); purified (Strep-Tactin) for light scattering; cell homogenate for co-purification; copies: 12
# B3: PfPdx1 K151A (enzyme)
# chain: B2 chain with K151A
# notes: Pdx1 of Plasmodium falciparum in pASK-IBA3, point mutant; source: E. coli BLR (DE3); purified (Strep-Tactin) for light scattering; cell homogenate for co-purification
# B4: PfPdx1 DKK (D26A/K83A/K151A) triple mutant (enzyme)
# chain: B2 chain with D26A, K83A, K151A
# notes: Pdx1 of Plasmodium falciparum in pASK-IBA3, triple mutant; Hexamer without additive; about half dodecamer with 10 mM glutamine; also called DKK to AAA (D26/K83/K151); DKK mutant; source: E. coli BLR (DE3); purified (Strep-Tactin) for light scattering; cell homogenate for co-purification
# Legend:
# [1] = target: PfPdx1 ERR (E136A/R139A/R140A) triple mutant (P. falciparum, UniProt C6KT50 1-301, E136 to alanine | R139 to alanine | R140 to alanine); experiment: cell-based or functional assay
# PfPdx1 K151A = target: B3; experiment: cell-based or functional assay
# [2] = target: B4; experiment: cell-based or functional assay
# PfPdx1 K83A = PfPdx1 K83A (P. falciparum, UniProt C6KT50 1-301, K83A); experiment: cell-based or functional assay
# PfPdx1 D26A = PfPdx1 D26A (P. falciparum, UniProt C6KT50 1-301, D26A); experiment: cell-based or functional assay
# [3] = target: the molecule itself; experiment: SEC-MALS; 100 ug purified Strep-tagged PfPdx1 on Superdex 200 10/30 with static light scattering (miniDAWN Tristar); 100 mM Tris-HCl pH 8.0, 150 mM NaCl, no amino acid added
# [4] = target: the molecule itself; experiment: SEC-MALS; as a2, with 10 mM glutamine in the elution buffer
binder,measurement,setting,value
B1,glutaminase activity of PfPdx2 mixed equimolar with the PfPdx1 variant,[1],286 mU mg^−1
same,glutaminase activity of PfPdx2 mixed equimolar with the PfPdx1 variant,PfPdx1 K151A,251 mU mg^−1
same,glutaminase activity of PfPdx2 mixed equimolar with the PfPdx1 variant,[2],274 mU mg^−1
same,glutaminase activity of PfPdx2 mixed equimolar with the PfPdx1 variant,PfPdx1 K83A,291 mU mg^−1
same,glutaminase activity of PfPdx2 mixed equimolar with the PfPdx1 variant,PfPdx1 D26A,285 mU mg^−1
B2,stoichiometry N,[3],12
B3,stoichiometry N,[3],6
B4,stoichiometry N,[4],12
same,stoichiometry N,[3],6
